# Assay results: patent US20240189423A1
# Tests used:
# [1] = target: tumor-associated calcium signal transducer 2 (TROP2) (UniProt P09758); assay: cell-based or functional assay
# [2] = target: human epidermal growth factor receptor 2 (HER2) (human) (UniProt P04626); assay: cell-based or functional assay
# tumor-associated calcium signal transducer 2 (TROP2), sequence (P09758 27-323 limits assumed): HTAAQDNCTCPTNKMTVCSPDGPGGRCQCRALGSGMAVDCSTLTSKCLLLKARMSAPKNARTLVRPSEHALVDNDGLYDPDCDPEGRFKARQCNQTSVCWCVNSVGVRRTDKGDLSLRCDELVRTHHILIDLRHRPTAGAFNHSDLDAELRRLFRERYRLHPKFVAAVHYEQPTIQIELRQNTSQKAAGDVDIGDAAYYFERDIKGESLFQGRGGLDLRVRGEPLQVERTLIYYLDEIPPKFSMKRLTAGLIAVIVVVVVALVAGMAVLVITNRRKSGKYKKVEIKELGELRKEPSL
"Dmax (%), TROP2, MCF7 [1] [%]",Substance,"IC50 of cell viability, modified MTT assay, MDA-MB-175VII cells, 5 days [2] [nM]","IC50 of cell viability, modified MTT assay, SK-BR-3 cells, 5 days [2] [nM]"
51,CXCL12-Sacituzumab (bispecific antibody),,
,CXCL12-Trastuzumab (bispecific antibody),86.8,199
